US20030162942A1 (DYAX, published 2003)

B1: CMTI-I analogue 120, phage isolate (designed binder)
chain: RWCPKTSLECMKDSDCLAECVCLEHGYCGAGPSYIEGRIVGSA
notes: not shown: mature gene III protein of M13 phage
B2: CMTI-I analogue 235, phage isolate (designed binder)
chain: RWCPKSTLGCMKDSDCLAECVCLEHGYCGAGPSYIEGRIVGSA
notes: as for B1
B3: CMTI-I analogue 109, phage isolate (designed binder)
chain: RLCPKTDLGCMKDSDCLAECVCLEHGYCGAGPSYIEGRIVGSA
notes: as for B1
B4: CMTI-I analogue 119, phage isolate (designed binder)
chain: RWCPKTHKECMKDSDCLAECVCLEHGYCGAGPSYIEGRIVGSA
notes: as for B1
B5: CMTI-I analogue 110, phage isolate (designed binder)
chain: RWCPKSSMGCKKDSDCLAECVCLEHGYCGAGPSYIEGRIVGSA
notes: as for B1
B6: CMTI-I analogue 223, phage isolate (designed binder)
chain: RWCPKYTLECMKDSDCLAECVCLEHGYCGAGPSYIEGRIVGSA
notes: as for B1
B7: CMTI-I analogue 101, phage isolate (designed binder)
chain: RWCPKTSLGCMKDSDCLAECVCLEHGYCGAGPSYIEGRIVGSA
notes: as for B1
B8: CMTI-I analogue 103, phage isolate (designed binder)
chain: RWCSTYSLGCMKDSDCLAECVCLEHGYCGAGPSYIEGRIVGSA
notes: as for B1
B9: CMTI-I analogue 114, phage isolate (designed binder)
chain: RWCPKSALDCKKDSDCLAECVCLEHGYCGAGPSYIEGRIVGSA
notes: as for B1
B10: CMTI-I analogue 111, phage isolate (designed binder)
chain: RWCPRTVQECMKDSDCLAECVCLEHGYCGAGPSYIEGRIVGSA
notes: as for B1
B11: CMTI-I analogue 232, phage isolate (designed binder)
chain: RWCPKTSLGCMKDSDCLAECVCLEHGYCGAGPSYIEGRIVGSA
notes: as for B1
B12: CMTI-I analogue 102, phage isolate (designed binder)
chain: RLCPKTYLGCMKDSDCLAECVCLEHGYCGAGPSYIEGRIVGSA
notes: as for B1
B13: CMTI-I analogue 233, phage isolate (designed binder)
chain: RWCPKYTLECMKDSDCLAECVCLEHGYCGAGPSYIEGRIVGSA
notes: as for B1
B14: CMTI-I analogue 112, phage isolate (designed binder)
chain: RWCPTAPLECMKDSDCLAECVCLEHGYCGAGPSYIEGRIVGSA
notes: as for B1
B15: CMTI-I analogue 116, phage isolate (designed binder)
chain: RWCIRTDLGCMKDSDCLAECVCLEHGYCGAGPSYIEGRIVGSA
notes: as for B1
B16: CMTI-I analogue 234, phage isolate (designed binder)
chain: RWCPRSSLECMKDSDCLAECVCLEHGYCGAGPSYIEGRIVGSA
notes: as for B1
B17: CMTI-I analogue 237, phage isolate (designed binder)
chain: RWCPRSNLECMKDSDCLAECVCLEHGYCGAGPSYIEGRIVGSA
notes: as for B1
B18: CMTI-I analogue 108, phage isolate (designed binder)
chain: RWCSKSSLECMKDSDCLAECVCLEHGYCGAGPSYIEGRIVGSA
notes: as for B1
B19: CMTI-I analogue 221, phage isolate (designed binder)
chain: RWCPKSTLGCMKDSDCLAECVCLEHGYCGAGPSYIEGRIVGSA
notes: as for B1
B20: CMTI-I analogue 115, phage isolate (designed binder)
chain: RWCTKTSRECMKDSDCLAECVCLEHGYCGAGPSYIEGRIVGSA
notes: as for B1
B21: CMTI-I analogue 118, phage isolate (designed binder)
chain: RWCPRTVRRCMKDSDCLAECVCLEHGYCGAGPSYIEGRIVGSA
notes: as for B1
B22: CMTI-I analogue 106, phage isolate (designed binder)
chain: RWCSTYSLGCMKDSDCLAECVCLEHGYCGAGPSYIEGRIVGSA
notes: as for B1
B23: CMTI-I analogue 229, phage isolate (designed binder)
chain: RWCPKYTLECMKDSDCLAECVCLEHGYCGAGPSYIEGRIVGSA
notes: as for B1
B24: CMTI-I analogue 222, phage isolate (designed binder)
chain: RWCPKSTLGCMKDSDCLAECVCLEHGYCGAGPSYIEGRIVGSA
notes: as for B1
B25: CMTI-I analogue 236, phage isolate (designed binder)
chain: RWCPRSSLECMKDSDCLAECVCLEHGYCGAGPSYIEGRIVGSA
notes: as for B1
B26: CMTI-I analogue 238, phage isolate (designed binder)
chain: RWCPRSNLECMKDSDCLAECVCLEHGYCGAGPSYIEGRIVGSA
notes: as for B1
B27: CMTI-I analogue 226, phage isolate (designed binder)
chain: RWCPRSNLECMKDSDCLAECVCLEHGYCGAGPSYIEGRIVGSA
notes: as for B1
B28: CMTI-I analogue 117, phage isolate (designed binder)
chain: RWCPKTSLGCMKDSDCLAECVCLEHGYCGAGPSYIEGRIVGSA
notes: as for B1
B29: CMTI-I analogue 104, phage isolate (designed binder)
chain: RWCSTYSLGCMKDSDCLAECVCLEHGYCGAGPSYIEGRIVGSA
notes: as for B1
B30: CMTI-I analogue 105, phage isolate (designed binder)
chain: RLCPKTSLECMKDSDCLAECVCLEHGYCGAGPSYIEGRIVGSA
notes: as for B1
B31: CMTI-I analogue 228, phage isolate (designed binder)
chain: RWCPKYTLECMKDSDCLAECVCLEHGYCGAGPSYIEGRIVGSA
notes: as for B1
B32: CMTI-I analogue 107, phage isolate (designed binder)
chain: RLCPKTSLECMKDSDCLAECVCLEHGYCGAGPSYIEGRIVGSA
notes: as for B1
B33: CMTI-I analogue 113, phage isolate (designed binder)
chain: RLCPKTDLGCMKDSDCLAECVCLEHGYCGAGPSYIEGRIVGSA
notes: as for B1
B34: CMTI-I analogue 224, phage isolate (designed binder)
chain: RWCPRSSLECMKDSDCLAECVCLEHGYCGAGPSYIEGRIVGSA
notes: as for B1

Key:
[1] = biological target: human serum protease thrombin (human, UniProt P00734 328-622); assay: phage binding to protein on beads (data not shown)
[2] = biological target: human serum protease plasmin (human, UniProt P00747 97-810, limits assumed); assay: phage binding to protein on beads (data not shown)
Chain of human serum protease plasmin (P00747 97-810 limits assumed): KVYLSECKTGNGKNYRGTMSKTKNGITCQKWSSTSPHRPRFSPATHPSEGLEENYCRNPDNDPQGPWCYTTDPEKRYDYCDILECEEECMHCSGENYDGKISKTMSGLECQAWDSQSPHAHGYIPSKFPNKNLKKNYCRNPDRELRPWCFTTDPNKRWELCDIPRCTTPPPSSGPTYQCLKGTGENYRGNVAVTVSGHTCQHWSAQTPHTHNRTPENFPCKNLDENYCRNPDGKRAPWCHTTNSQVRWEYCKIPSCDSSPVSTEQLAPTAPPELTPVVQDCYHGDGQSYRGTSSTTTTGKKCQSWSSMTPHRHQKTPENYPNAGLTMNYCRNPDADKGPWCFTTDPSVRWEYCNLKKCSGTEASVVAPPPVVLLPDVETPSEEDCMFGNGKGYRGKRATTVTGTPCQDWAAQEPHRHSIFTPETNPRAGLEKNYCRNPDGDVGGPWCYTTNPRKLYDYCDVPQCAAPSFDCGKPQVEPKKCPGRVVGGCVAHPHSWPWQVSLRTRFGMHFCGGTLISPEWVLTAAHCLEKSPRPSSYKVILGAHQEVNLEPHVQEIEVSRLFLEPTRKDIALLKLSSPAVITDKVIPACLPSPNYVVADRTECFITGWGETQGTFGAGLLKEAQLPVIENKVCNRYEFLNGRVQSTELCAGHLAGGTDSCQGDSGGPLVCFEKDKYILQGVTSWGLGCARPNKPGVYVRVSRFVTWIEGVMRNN

[3] = biological target: T1, recombinant human tissue-type plasminogen activator (tPA) (human, UniProt P00750 36-562); assay: phage display selection on tPA agarose beads, binding at pH 7
T1 construct: Immobilized on ReactiGel agarose beads for the phage work; Used in solution for the column tests
T1 sequence (P00750 36-562 limits assumed): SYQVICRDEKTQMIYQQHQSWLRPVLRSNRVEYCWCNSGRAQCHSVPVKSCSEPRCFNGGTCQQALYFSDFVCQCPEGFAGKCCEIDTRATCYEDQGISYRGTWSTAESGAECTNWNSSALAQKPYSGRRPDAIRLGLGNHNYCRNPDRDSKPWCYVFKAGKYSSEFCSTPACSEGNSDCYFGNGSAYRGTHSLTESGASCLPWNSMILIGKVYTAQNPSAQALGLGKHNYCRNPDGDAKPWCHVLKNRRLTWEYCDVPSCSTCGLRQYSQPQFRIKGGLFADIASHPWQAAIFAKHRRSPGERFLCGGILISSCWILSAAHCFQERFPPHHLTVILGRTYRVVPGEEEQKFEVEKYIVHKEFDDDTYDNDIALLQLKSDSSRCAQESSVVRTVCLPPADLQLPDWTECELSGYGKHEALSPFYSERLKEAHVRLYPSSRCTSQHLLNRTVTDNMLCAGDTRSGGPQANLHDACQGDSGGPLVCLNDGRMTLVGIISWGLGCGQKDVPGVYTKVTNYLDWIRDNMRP
Method: For this work, tPA was purchased from CalBiochem (#612200) and immobilized on ReactiGel™ agarose beads from Pierce Chemical Company by methods described in Markland et al. (1996). Approximately 200 μg of tPA were coupled to 200 μL of ReactiGel™ slurry.
The phage libraries described were screened for binding to tPA through four rounds. In the first round, the phage libraries were mixed in separate reactions with tPA agarose beads at pH 7 in phosphate-buffered saline (PBS). Bovine serum albumin (BSA) was added at 0.1% to reduce non-specific binding. Unbound phage were washed off at pH 7, and the bound phage eluted at pH 2 for the first screen only. […] Pool A consisted of the combined outputs from the CMTI and Lib#1 libraries, and Pool B consisted of the combined outputs of the Lib#3 and Lib#5 libraries. The binding of pooled libraries was performed at pH 7, however, the first elution to remove bound phage was carried out at pH 5 and a subsequent elution at pH 2 to elute phage that are released in the pH 5-pH 2 range. This was repeated twice more for a total of 4 rounds of selection.

[4] = biological target: T1, recombinant human tissue-type …; assay: phage isolate binding to and pH release from immobilized tPA

Binder	binding result [1]	binding result [2]	binding result [3]	binding result [4]
B1	no binding	no binding	binds	–
B2	no binding	no binding	binds	–
B3	no binding	no binding	–	binds
B4	no binding	no binding	binds	–
B5	no binding	no binding	binds	–
B6	no binding	no binding	binds	–
B7	no binding	no binding	binds	–
B8	no binding	no binding	binds	–
B9	no binding	no binding	binds	–
B10	no binding	no binding	binds	–
B11	no binding	no binding	binds	–
B12	no binding	no binding	binds	–
B13	no binding	no binding	binds	–
B14	no binding	no binding	binds	–
B15	no binding	no binding	binds	–
B16	no binding	no binding	binds	–
B17	no binding	no binding	binds	–

Binder	binding result [1]	binding result [2]	binding result [3]	binding result [4]
B18	no binding	no binding	–	binds
B19	no binding	no binding	binds	–
B20	no binding	no binding	binds	–
B21	no binding	no binding	binds	–
B22	no binding	no binding	–	binds
B23	no binding	no binding	binds	–
B24	no binding	no binding	binds	–
B25	no binding	no binding	binds	–
B26	no binding	no binding	binds	–
B27	no binding	no binding	binds	–
B28	no binding	no binding	binds	–
B29	no binding	no binding	binds	–
B30	no binding	no binding	–	binds
B31	no binding	no binding	binds	–
B32	no binding	no binding	–	binds
B33	no binding	no binding	binds	–
B34	no binding	no binding	binds	–
